Results from PMC11952967.

Experiments:
[1] = target: MUTYH L296L (c.802C > T) (human (endogenous in HEK293T)); assay: co-IP; MUTYH immunoprecipitated with MUTYH (C-6) antibody on Protein G Dynabeads from nuclear extract of wild-type or homozygous mutant HEK293T cells treated with 0.5 mM H2O2 for 1 h; 1 h at 4°C in PBST; blotted for APE1; APE1 signal quantified relative to MUTYH and normalised to unedited cells
[2] = target: MUTYH D271G (c.728A > G) (human (endogenous in HEK293T)); assay: as above
MUTYH D271G (c.728A > G) (human (endogenous in HEK293T)), sequence (Q9UIF7 whole entry, stated change not applied): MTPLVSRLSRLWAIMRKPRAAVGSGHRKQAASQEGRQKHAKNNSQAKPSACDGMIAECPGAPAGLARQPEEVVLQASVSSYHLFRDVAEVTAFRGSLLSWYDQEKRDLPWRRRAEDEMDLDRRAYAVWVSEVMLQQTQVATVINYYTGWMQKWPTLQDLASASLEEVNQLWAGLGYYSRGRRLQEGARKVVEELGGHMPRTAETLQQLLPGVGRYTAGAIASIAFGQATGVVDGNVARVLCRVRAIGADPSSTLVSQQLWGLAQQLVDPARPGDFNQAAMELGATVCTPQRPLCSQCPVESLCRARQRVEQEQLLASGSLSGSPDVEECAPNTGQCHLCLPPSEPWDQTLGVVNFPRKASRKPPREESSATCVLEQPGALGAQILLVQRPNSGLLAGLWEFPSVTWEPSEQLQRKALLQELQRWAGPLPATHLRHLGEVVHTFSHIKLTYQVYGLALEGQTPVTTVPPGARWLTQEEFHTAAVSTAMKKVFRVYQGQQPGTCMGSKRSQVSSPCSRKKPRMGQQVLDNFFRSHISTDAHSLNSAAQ

[3] = target: MUTYH L111P (c.248T > C) (human (endogenous in HEK293T)); assay: as above
MUTYH L111P (c.248T > C) (human (endogenous in HEK293T)), sequence (Q9UIF7 whole entry, stated change not applied): as above

[4] = target: MUTYH W131* (c.309G > A) (human (endogenous in HEK293T)); assay: as above
[5] = target: MUTYH D271G (c.728A > G) (human (endogenous in HEK293T))
[6] = target: MUTYH W131* (c.309G > A) (human (endogenous in HEK293T))

MUTYH L296L (c.802C > T) (human (endogenous in HEK293T)), sequence (Q9UIF7 whole entry): as the sequence (Q9UIF7 whole entry, stated change not applied) above

- APE1 signal relative to MUTYH in the MUTYH immunoprecipitate, normalised to wild type (relative to wild-type levels) [1]: 0.8
- APE1 signal relative to MUTYH in the MUTYH immunoprecipitate, normalised to wild type (relative to wild-type levels) [2]: 0.29
- APE1 signal relative to MUTYH in the MUTYH immunoprecipitate, normalised to wild type (relative to wild-type levels) [3]: 0.82
- APE1 signal relative to MUTYH in the MUTYH immunoprecipitate, normalised to wild type (relative to wild-type levels) [4]: 0.21
- 8-oxoG•[O] repair efficiency (average fold-change in MFI of EGFP+ cells compared to that of unedited HEK293T cells), homozygous D271G clones (fold of unedited HEK293T cells) [5]: 0.56
- 8-oxoG•[O] repair efficiency (average fold-change in MFI of EGFP+ cells compared to that of unedited HEK293T cells), homozygous W131* clones (fold of unedited HEK293T cells) [6]: 0.34
Substance: APE1 (apurinic/apyrimidinic endodeoxyribonuclease 1) (from UniProt P27695 1-318) (enzyme)
